Measurements taken from US20010019714A1 (priority 1998, published 2001).

Target: T1, HLA-A2 on T2 cells (Homo sapiens, UniProt P04439, D140Y/D185E/D98H/E176V/E277Q/G131W/G231S/I119V/I121R/I166T/I218V/L300P/L318F/N151K/N90K/P208A/P217A/Q86G/Q94H/R138H/R169H/T345S)
T1 construct: T2 cell line expressing the HLA-A2 molecules; endogenous in cells; host or cells: T2 cell line (TAP-deficient), from Dr Peter Creswell, Yale University
Test: peptide-induced MHC class 1 assembly assay (HLA-A2 binding and stabilization, FACS)
Format: cell-based
Conditions: for binding to HLA-A2 on T2 cells (shift of fluorescent peak): antibody BB7.2, FACS, FIG. 1; for order of potency by comparison of fluorescence indices: fluorescence index = mean fluorescence of peptide treated T2 cells / untreated T2 cells
Protocol: Location of the potential CTL containing motifs of the HIV-1(LAI) Rev protein has been predicted by the reported peptide-binding motif algorithms. […] The ability of the peptides containing these motifs to bind and stablize membrane-bound HLA-A2 molecule was assessed using the T2 cell line. The cell line has been well documented to have defective TAP transporter function resulting in the majority of the intracellularly generated peptides being unable to be transported into the endoplasmic reticulum to associate with the newly synthesized HLA class 1 molecules, i.e. HLA-A2 (see references 4, 5). […] Upon interaction with suitable peptides introduced exogenously, the stability of the HLA-A2 molecules can be restored.
T2 cell line expressing the HLA-A2 molecules was obtained from Dr Peter Creswell at the Howard Hughes Research Institute of Yale University. The cells were propagated in Iscove's complete medium (Iscove's medium supplemented with 10% heat-inactivated bovine serum, 120.0 units per ml of penicilin G sodium, 120 μg per ml of streptomycin sulphate, and 0.35 mg per ml of L-glutamine). The ability of individual 8 to 13 mer peptides, prepared as described in Example 1 and identified in Table 1, to bind and modulate the stability of the A2 molecules on T2 cells was determined using a peptide-induced MHC class 1 assembly assay, which was modified from a protocol described by Yuping Deng et al. (ref. 6).
In essence, 1×10^6 T2 cells were incubated with a specified concentration of the test peptide in 250.0 μl of Iscove's serum-free medium (Iscove's medium supplemented with 120.0 units per ml of penicillin G sodium, 120.0 ug per ml of streptomycin sulphate and 0.35 mg per ml of L-glutamine) in a sterile Eppendorf tube at 37° C. overnight. The cells were then incubated on ice for 30 min before 1.0 ml of Iscove's complete medium supplemented with 5.0 ug per ml of brefeldin A, 12.5 ug per ml of anisomycin and 5.0 ug per ml of cyclohexamide was added. The samples were then incubated for 3.0 hr in a 37° C. CO2 incubator.
In the presence of the drugs, further protein synthesis and intracellular delivery of HLA-A2 molecules to the cell surface are inhibited, and de-stabilization of the conformation of the membrane-bound class 1 molecules at the physiological temperature occurs.
The cells were then washed twice with ice-cold PBA (a buffer containing 0.9% sodium chloride, 0.5% bovine serum albumin and 0.02% sodium azide). 100.0 ul of PBA containing 5.0 ug of a conformation-sensitive HLA-A2-specific mouse monoclonal antibody, BB7.2 (ref. 7), was then added to each test sample. The reaction was allowed to take place on ice for 45 min. The cells were then washed three times with ice-cold PBA.
The binding of BB7.2 was then detected by adding […] containing 1.0 ug of goat anti-mouse IgG F(ab′) fluorescein (FITC) conjugate to each cell sample. After 30 min incubation on ice, the cells were washed twice with PBA, and twice again with PBS, pH 7.2. Cells were fixed immediately after washing was completed by adding 100.0 ul of 1.0% paraformaldehyde to the cell pellet. The cells were gently resuspended and were FACS analysed usually within three days after the experiments were completed.
The fluorescence index, which is an indicator for increased density of membrane-bound A2 molecules, was calculated by dividing the mean fluorescence of an experimental sample (peptide treated T2 cells) by the mean fluorescence of the control sample (T2 cells not treated with peptide).

Sequence | binding to HLA-A2 on T2 cells (shift of fluorescent peak) | order of potency by comparison of fluorescence indices
ILVESPAVL [CLP-72] | capable of binding to HLA-A2 on T2 cells | CLP-177>CLP-72>CLP-178>CLP-182
PLQLPPLERLIL [CLP-182] | capable of binding to HLA-A2 on T2 cells | CLP-177>CLP-72>CLP-178>CLP-182
YLGRSAEPV [CLP-177] | capable of binding to HLA-A2 on T2 cells | CLP-177>CLP-72>CLP-178>CLP-182
YLGRSAEPVPL [CLP-178] | capable of binding to HLA-A2 on T2 cells | CLP-177>CLP-72>CLP-178>CLP-182
